Laboratory results taken from the Human Domainome abundance scans (Beltran et al. 2025).
± gives the uncertainty stated by the source.

B1: POU domain, class 3, transcription factor 3, residues 408 to 463; numbered along this chain, P20264 (parent)
chain: KKRTSIEVSVKGALESHFLKCPKPSAQEITNLADSLQLEKEVVRVWFCNRRQKEKR

Variants of: B1
Assay: abundance fitness (aPCA) (normalised: wild type 0, dead -1); higher = more abundant; growth selection in yeast, the domain comes from the species named
Details: Homo sapiens

Abundance fitness, by site and new letter:
P24: A -0.778 ± 0.14 | K -0.93 ± 0.23 | G -1.05 ± 0.11 | M -0.867 ± 0.16 | T -0.825 ± 0.24 | E -0.871 ± 0.17 | D -0.802 ± 0.17 | C -0.83 ± 0.19 | I -0.731 ± 0.22 | V -0.792 ± 0.093 | S -0.874 ± 0.13 | F -0.827 ± 0.22 | Q -0.842 ± 0.2 | L -0.881 ± 0.099 | R -0.918 ± 0.094
N31: Y -0.009 ± 0.098 | S -0.033 ± 0.038
K23: M -0.031 ± 0.1 | D 0.114 ± 0.099 | E -0.028 ± 0.072 | S 0.033 ± 0.069 | Q -0.192 ± 0.12 | R -0.049 ± 0.063 | Y -0.05 ± 0.11 | I -0.065 ± 0.12 | P -0.724 ± 0.2 | G -0.252 ± 0.063 | H -0.127 ± 0.14 | N 0.248 ± 0.11 | T -0.052 ± 0.1 | L -0.057 ± 0.075 | V -0.082 ± 0.066 | W -0.084 ± 0.077 | A -0.001 ± 0.077 | F -0.034 ± 0.12
A26: P 0.039 ± 0.13 | H 0.071 ± 0.17 | M -0.063 ± 0.1 | T -0.081 ± 0.1 | L -0.005 ± 0.074 | Y -0.087 ± 0.13 | E 0.031 ± 0.087 | R -0.073 ± 0.064 | C -0.102 ± 0.087 | V -0.1 ± 0.069 | D -0.004 ± 0.11 | Q -0.024 ± 0.11 | F -0.297 ± 0.15 | S -0.168 ± 0.08 | G -0.086 ± 0.06 | W -0.155 ± 0.083
H17: R -0.444 ± 0.072 | A -0.055 ± 0.081 | N -0.189 ± 0.16 | P -0.807 ± 0.16 | I -0.219 ± 0.14 | L -0.188 ± 0.081 | F -0.104 ± 0.15 | T -0.234 ± 0.096 | Y 0.041 ± 0.11 | C -0.201 ± 0.11 | W -0.048 ± 0.08 | M -0.147 ± 0.1 | Q -0.134 ± 0.12 | G -0.683 ± 0.074 | E -0.176 ± 0.089 | V -0.069 ± 0.07 | S -0.039 ± 0.085
C21: H -0.031 ± 0.19 | G -0.468 ± 0.062 | K -0.408 ± 0.12 | S 0.041 ± 0.086 | Q 0.084 ± 0.11 | R -0.501 ± 0.063 | I -0.73 ± 0.24 | Y -0.383 ± 0.12 | V -0.249 ± 0.069 | L -0.611 ± 0.088 | P -0.719 ± 0.13 | T -0.094 ± 0.1 | E 0.048 ± 0.089 | D -0.094 ± 0.12 | F -0.407 ± 0.16 | M -0.314 ± 0.1
S25: T -0.075 ± 0.11 | L -0.559 ± 0.078 | N -0.092 ± 0.16 | G -0.172 ± 0.063 | Y -0.66 ± 0.13 | I -0.84 ± 0.41 | W -0.885 ± 0.11 | V -0.45 ± 0.081 | H -0.593 ± 0.17 | K -0.565 ± 0.11 | Q -0.537 ± 0.11 | F -0.773 ± 0.25 | E -0.287 ± 0.11 | C -0.185 ± 0.11 | M -0.681 ± 0.15 | R -0.398 ± 0.065 | P -0.373 ± 0.14
I29: R -0.859 ± 0.097 | V -0.204 ± 0.08 | W -0.903 ± 0.14 | K -1.07 ± 0.17 | D -0.871 ± 0.24 | H -0.997 ± 0.41 | M -0.028 ± 0.11 | Y -0.889 ± 0.23 | P -0.871 ± 0.21 | N -0.982 ± 0.26 | T -0.849 ± 0.19 | F -0.832 ± 0.2 | S -0.781 ± 0.15 | L -0.038 ± 0.08 | C -0.574 ± 0.14 | G -0.899 ± 0.099 | Q -0.822 ± 0.15 | E -0.301 ± 0.11
K20: D -0.197 ± 0.15 | W -0.421 ± 0.097 | H -0.279 ± 0.14 | R -0.05 ± 0.075 | P -0.912 ± 0.17 | I -0.191 ± 0.1 | S -0.233 ± 0.078 | N -0.109 ± 0.11 | V -0.127 ± 0.089 | M -0.187 ± 0.12 | G -0.366 ± 0.079 | L -0.195 ± 0.072 | Y -0.335 ± 0.11 | T -0.256 ± 0.1 | Q 0.054 ± 0.14 | A -0.218 ± 0.079 | F -0.438 ± 0.12 | C -0.465 ± 0.14
S16: Q 0.012 ± 0.14 | W -0.502 ± 0.088 | P -0.441 ± 0.13 | Y -0.004 ± 0.14 | C -0.086 ± 0.12 | I -0.361 ± 0.17 | H -0.287 ± 0.17 | M -0.076 ± 0.12 | G -0.059 ± 0.065 | F -0.232 ± 0.099 | K 0.036 ± 0.12 | N -0.044 ± 0.17 | L -0.106 ± 0.084 | R -0.011 ± 0.063 | A -0.026 ± 0.089 | T -0.067 ± 0.13 | D 0.026 ± 0.11 | V -0.261 ± 0.075 | E 0.006 ± 0.091
L14: A -0.8 ± 0.1 | S -0.87 ± 0.097 | Q -0.942 ± 0.17 | Y -0.815 ± 0.18 | N -1.01 ± 0.18 | E -1.11 ± 0.16 | I -0.45 ± 0.2 | P -1 ± 0.18 | W -1.01 ± 0.12 | G -0.958 ± 0.083 | F -0.899 ± 0.29 | C -0.662 ± 0.12 | D -0.697 ± 0.22 | T -0.839 ± 0.12 | V -0.899 ± 0.1
Q27: F -0.27 ± 0.13 | N 0.098 ± 0.19 | E -0.036 ± 0.11 | H -0.123 ± 0.12 | T -0.151 ± 0.11 | K -0.095 ± 0.11 | R -0.055 ± 0.058 | V -0.11 ± 0.07 | S -0.098 ± 0.073 | L -0.091 ± 0.068 | A -0.049 ± 0.081 | Y -0.195 ± 0.15 | P -0.279 ± 0.084 | G -0.076 ± 0.067 | M -0.194 ± 0.1 | W -0.222 ± 0.076 | I -0.312 ± 0.16 | C -0.171 ± 0.1
G12: E 0.111 ± 0.091 | H -0.009 ± 0.16 | P -0.056 ± 0.1 | V 0.211 ± 0.075 | N 0.11 ± 0.15 | W -0.25 ± 0.084 | R 0.007 ± 0.061 | L 0.104 ± 0.071 | F -0.054 ± 0.11 | M 0.161 ± 0.11 | Y 0.103 ± 0.14 | T 0.078 ± 0.099 | Q -0.094 ± 0.14 | I 0.051 ± 0.16 | K -0.035 ± 0.15
E15: R -1.03 ± 0.24 | M -0.713 ± 0.4 | S -1 ± 0.3 | D -0.753 ± 0.42 | V -0.698 ± 0.21 | L -0.599 ± 0.19 | G -1.02 ± 0.23 | A -0.858 ± 0.28 | K -0.582 ± 0.3 | W -0.593 ± 0.23 | N -1.02 ± 0.41
P22: A -0.121 ± 0.2 | I -0.572 ± 0.23 | K -0.432 ± 0.48 | L -0.732 ± 0.41 | R -0.398 ± 0.14 | V -0.641 ± 0.18 | Y -0.383 ± 0.47 | H -0.448 ± 0.36 | S -0.35 ± 0.17 | G -0.19 ± 0.11
F18: L -1.01 ± 0.11 | H -0.932 ± 0.21 | R -0.935 ± 0.097 | D -0.568 ± 0.16 | K -0.925 ± 0.15 | I -0.973 ± 0.2 | A -0.84 ± 0.091 | V -0.859 ± 0.077 | W -0.5 ± 0.096 | T -0.922 ± 0.14 | C -0.935 ± 0.16 | N -1.18 ± 0.24 | E -0.875 ± 0.12 | S -0.902 ± 0.11 | Q -0.703 ± 0.2 | Y 0.026 ± 0.12
A33: E -0.964 ± 0.21 | F -0.941 ± 0.17 | D -0.863 ± 0.13 | G -0.623 ± 0.079 | H -0.513 ± 0.22 | C -0.515 ± 0.11
L19: F -0.346 ± 0.11 | S -0.047 ± 0.069 | N 0.014 ± 0.13 | T -0.155 ± 0.093 | M 0.033 ± 0.099 | C -0.138 ± 0.091 | Y -0.288 ± 0.15 | A -0.029 ± 0.086 | H -0.173 ± 0.097 | G -0.238 ± 0.062 | V -0.075 ± 0.066 | E -0.086 ± 0.1 | D -0.191 ± 0.11 | K -0.057 ± 0.091 | W -0.339 ± 0.074 | Q 0.002 ± 0.1 | R -0.024 ± 0.059 | P -1.09 ± 0.19
T30: I -0.035 ± 0.099 | H -0.153 ± 0.12 | G -0.072 ± 0.062 | M -0.057 ± 0.095 | D 0.048 ± 0.1 | C -0.037 ± 0.12 | K -0.044 ± 0.1 | V -0.1 ± 0.064 | R -0.17 ± 0.066 | F -0.082 ± 0.12 | P -0.847 ± 0.14 | E -0.107 ± 0.11 | S 0.031 ± 0.071 | N -0.095 ± 0.099 | A -0.028 ± 0.077 | Q 0.079 ± 0.11 | Y -0.337 ± 0.13 | W -0.327 ± 0.095
L32: R -0.758 ± 0.091 | E -0.782 ± 0.13 | Q -0.923 ± 0.16 | F -0.556 ± 0.16 | A -0.92 ± 0.15 | T -0.78 ± 0.12 | K -1.06 ± 0.2 | W -0.967 ± 0.17 | N -0.897 ± 0.19 | C -1.07 ± 0.41 | H -0.652 ± 0.16 | S -0.95 ± 0.13 | I 0.187 ± 0.17 | P -0.935 ± 0.19 | V -0.245 ± 0.067 | G -0.88 ± 0.1 | D -1.03 ± 0.14
A13: G -0.46 ± 0.067 | E -0.081 ± 0.095 | W -0.344 ± 0.092 | S -0.079 ± 0.089 | T -0.058 ± 0.096 | Q -0.099 ± 0.11 | L -0.093 ± 0.077 | M -0.096 ± 0.12 | R 0.018 ± 0.064 | V 0.111 ± 0.075 | C -0.199 ± 0.11 | I -0.046 ± 0.18 | F -0.191 ± 0.17 | N -0.274 ± 0.18 | P -0.353 ± 0.12 | Y -0.17 ± 0.14 | D -0.355 ± 0.13
E28: S -0.45 ± 0.09 | K -0.538 ± 0.13 | Y -0.048 ± 0.18 | C -0.368 ± 0.12 | A -0.118 ± 0.083 | G -0.237 ± 0.067 | Q -0.145 ± 0.15 | T -0.251 ± 0.13 | P -0.838 ± 0.13 | F -0.573 ± 0.15 | W -0.59 ± 0.1 | I -0.223 ± 0.26 | N -0.455 ± 0.19 | H -0.554 ± 0.25 | D -0.256 ± 0.15 | R -0.456 ± 0.069 | V -0.442 ± 0.084
